Experimental data taken from paper PMC5645249.
Positions count from the first letter of the chain named. In names and notes the source's numbering stands.

B1: Synechococcus sp. PCC 7942 NR (ferredoxin-dependent nitrate reductase) (Synechococcus elongatus PCC 7942 = FACHB-805; K215R) (protein)
chain: MIDTAKTLCPYCGVGCGLEAVPPAQPGRATVRDREGTPIWQIRGDRQHPSSQGMVCVKGATVAESVSKSRLKYPMFRASLDDPFTEISWDEALDRLCDRIQQTQADYGKDGICFYGSGQFQTEDYYIAQKLVKGCLGTNNFDTNSRLCMSSAVSAYSLCLGSDGPPACYEDLDLADCLLIVGSNTAECHPILFNRYRKRHRQGGTNLIVVDPRCTPTAEVADLHLALKPGSDVALLNGLGWLLYQMGYVKKDFIANQTEGFEDWLAIIEDYPPQRTAELTGLAVAELVRAADLIASAQRWLSLWSMGVNQSIQGTAKATSLINLHLLTRQIGLPGCGPFSLTGQPNAMGGRETGGLAHLLPGYRKVIDPQHRADVETIWGLPMGSISPQPGRTAWQMIEGLEQGAVGFLWVAATNPAVSLPDVKRAQAALKRSPFTVLQDAYHPTETTTYAHLLLPAAQWSEKTGTMTNSERRVTLCQAFRQPPGEARADWQIFAEVGRRLGFAFDYTDAAAVFAEYVQVTAGRLCDLSGLSHELLAQAGPQQWPFPAGAEPTTESKRLYTKHHFAYADGRARFQPFHHLGVAEPPDDRYPLVLTVGRLYGHWHTQTRTGRIDKINKLHPSAFVEIHPRDADRYNISEGQAVVIRSRRGEGCFPAKVTTAISPGVLFVPMHWGALWGDRTEANALTHPAACPISGEPELKACAVQIEAASSTFTI
B2: Synechococcus sp. PCC 7942 NR (ferredoxin-dependent nitrate reductase) (Synechococcus elongatus PCC 7942 = FACHB-805; E233Q) (protein)
chain: B1 chain with R201K, E219Q
B3: Synechococcus sp. PCC 7942 NR (ferredoxin-dependent nitrate reductase) (Synechococcus elongatus PCC 7942 = FACHB-805; K628R) (protein)
chain: B1 chain with R201K, K614R
B4: Synechococcus sp. PCC 7942 NR (ferredoxin-dependent nitrate reductase) (Synechococcus elongatus PCC 7942 = FACHB-805; R57K) (protein)
chain: B1 chain with R43K, R201K
B5: Synechococcus sp. PCC 7942 NR (ferredoxin-dependent nitrate reductase) (Synechococcus elongatus PCC 7942 = FACHB-805; R60Q) (protein)
chain: B1 chain with R46Q, R201K
B6: Synechococcus sp. PCC 7942 NR (ferredoxin-dependent nitrate reductase) (Synechococcus elongatus PCC 7942 = FACHB-805; R60K) (protein)
chain: B1 chain with R46K, R201K
B7: Synechococcus sp. PCC 7942 NR (ferredoxin-dependent nitrate reductase) (Synechococcus elongatus PCC 7942 = FACHB-805; R211Q) (protein)
chain: B1 chain with R197Q, R201K

These proteins were tested on O=[N+]([O-])O (assay: nitrate reduction with reduced Fd, Michaelis-Menten fit). Conditions: saturating reduced Synechocystis sp. PCC 6803 ferredoxin as electron donor.
Type: biochemical, Synechococcus elongatus

Point of comparison: B6, Km 6.6 ± 1.0 µM. Against it:
- B1 — within 1.5-fold, 9.6 ± 1.0 µM
- B2 — within 1.5-fold, 4.5 ± 0.4 µM
- B3 — 1.6-fold lower, 4.2 ± 0.5 µM
- B4 — within error, 8.1 ± 0.7 µM
- B5 — 8.3-fold higher, 55 ± 20 µM
- B7 — within error, 7.0 ± 0.7 µM
